Results on 12 molecules are retold here after patent US20150266963A1 (ARGEN X B V, published 2015).

Test [1] addresses T1, recombinant human CD70 (Flag-TNC-CD70) (human, UniProt P32970 39-193).
T1 construct: extracellular domain; Captured by anti-Flag mAb in ELISA; as 'recombinant human CD70' immobilised on Biacore CM5 chips; TNC is for trimerisation; also called recombinant CD70; human recombinant CD70; not shown: Flag tag and TNC trimerisation domain
T1 sequence (looked up): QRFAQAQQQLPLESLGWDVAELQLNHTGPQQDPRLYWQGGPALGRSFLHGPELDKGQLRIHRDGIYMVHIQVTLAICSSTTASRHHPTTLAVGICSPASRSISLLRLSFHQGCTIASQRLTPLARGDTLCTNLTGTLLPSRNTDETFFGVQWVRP
The test can be described thus: inhibition ELISA: Flag-TNC-CD70 captured by anti-Flag mAb, Fab titrated, remaining binding of CD27-Fc detected. The method, then: (§1) From selected phage transfected into TG1, individual colonies were picked randomly for growth in 96 well plates. After IPTG induction according to standard protocols periplasmic fractions (penis) containing Fabs were prepared. […] In this assay, Flag-TNC-CD70 is captured by an anti-Flag mAb and binding of CD27-Fc is detected via a biotinylated anti-CD27 mAb and strep-HRP in the absence or presence of CD70 Fabs (FIGS. 2 and 3) or CD70 mAbs (FIG. 4). In FIG. 2B it can be seen that 27B3, which has an identical VH as 9D1, but contains a somewhat different light chain, seems to block binding of CD27 to CD70 more efficiently, which was in line with the better off rate of this Fab as measured on Biacore (data not shown). Table 3 indicates the blocking potency (expressed as IC50) for the various llama-human chimeric mAbs tested in the CD70 inhibition ELISA. […] FIG. 3 is a composite of an experiment testing llama CD70 Fabs for blocking activity (in the inhibition ELISA, see white bars) and for CD70 binding (binding ELISA, black bars). For the binding ELISA, Flag-TNC-CD70 is captured by an anti-Flag mAb and binding of the Fabs is detected using an anti-myc-HRP mAb, which recognizes the MYC tag fused to the C-terminus of the Fd fragment. For comparison purposes, known monoclonal antibodies to CD70 (SGN70 described in US 2010/0129362 A1, clone 1F6; and MDX69A7 described in WO2008/074004 FIGS. 5A and 5B) were tested in parallel. […] Of interest is clone 59D10, which as Fab has no blocking activity, but when converted into a chimeric IgG was antagonistic (see Table 3). Amino acid sequences of the VH and VL domains of binding and blocking llama-derived Fab clones are shown elsewhere herein (Tables 6-9).

In test [2] the target is T2, rhesus recombinant CD70 (FLAG-TNC-rhesus CD70) (rhesus).
T2 construct: also called rhesus Flag-TNC-CD70
The test can be described thus: Biacore; rhesus recombinant CD70 on chip; Fab injected.

Test [3] deals with T1, recombinant human CD70 (Flag-TNC-CD70). The test can be described thus: Biacore; recombinant human CD70 on CM5 chip; Fab injected. The protocol: Off-rates of the purified llama-derived anti-CD70 blocking Fabs were determined using the Biacore. Recombinant human CD70 was immobilized on a CM5 Biacore chip. The immobilization was performed in accordance with a method provided by Biacore and by using the NHS/EDC kit (Biacore AB): after activation of the chip, a solution of 50 μg/ml of recombinant CD70 in 10 mM acetate buffer with pH of 5 was prepared and 1 μl of this solution (50ng) was injected resulting in a surface density of approximately 1000 RU.
Fabs for the CD70 mAbs ARGX-110, MDX2H5 and SGN70 were prepared by […] digestion (SGN70 and MDX69A7 are described elsewhere herein, MDX2H5, also referred to as MDX1411, is described in WO2008/074004 FIGS. 1A and 1B). Fabs, at a concentration of approximately 100-400 μg/ml, were diluted 6-fold in hepes-buffered saline (0.1M Hepes, 1.5M NaCl, 30 mM EDTA, 0.5% v/v surfactant P20). They were injected (30 μl) and passed through the flow cells at a flow rate of 30 μl/min. After binding of the Fab to CD70, the off-rate was monitored for a period of 10 minutes. After the dissociation, the flow cell surfaces were regenerated by injecting 5 μl of 10 mM NaOH. Sometimes multiple injections of NaOH were needed to regenerate the surfaces depending on the affinity of the Fabs. Off-rate analysis was done by applying the BIAevaluation software. First, the sensogram of the blank runs were subtracted from those obtained with the coated flow cell. […] Moreover, the off-rate of CD27 for CD70 was determined as well.
A general note: SPR reads the build-up and loss of mass on a sensor chip optically.

Test [4] concerns the target T3, human CD70 expressed on the surface of cells (human, UniProt P32970 1-193).
T3 sequence (looked up): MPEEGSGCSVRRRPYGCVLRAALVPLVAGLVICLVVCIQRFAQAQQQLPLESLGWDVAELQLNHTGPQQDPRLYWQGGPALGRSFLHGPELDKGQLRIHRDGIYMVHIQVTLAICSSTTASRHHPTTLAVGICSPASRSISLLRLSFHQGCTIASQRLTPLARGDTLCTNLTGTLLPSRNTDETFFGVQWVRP
The test can be described thus: cell-based or functional assay.

The target in test [5] is T1, recombinant human CD70 (Flag-TNC-CD70). The test can be described thus: inhibition ELISA; Flag-TNC-CD70 captured by anti-Flag mAb; competitor CD27-Fc. The method, then: as §1

B1: 4D2 Fab (Fab, V domains shown)
VH: QVQLQESGPGLVKPSQTLSLACTVSGGSITTSYYYWSWIRQPPGKGLEWMGAIGSRGSTYYSPSLKTRTSISRDTSKNQFTLQLSSVTPEDTAVYYCARVTGEITYNSGSYYYTLNLFDYWGQGTQVTVSS
VL: QSVLTQPPSLSASPGSSVRLTCTLSSGNSVGNYDISWYQQKAGSPPRYLLYYYSDSYKNQGSGVPSRFSGSKDPSANAGLLLISGLQAEDEADYYCSVSNSGTYKPVFGGGSKLTVLG
notes: Llama-derived Fab
As for B1, the “IC50 (read off the curve)” value in test [1] is about 1 nM. Also, the off-rate (koff) – broadly, the rate constant with which the complex falls apart – in test [2] was 0.00029 s⁻¹; in test [3] it was 0.00033 s⁻¹.

B2: 1C2 Fab (Fab, V domains shown)
VH: ELQVVESGGGLVQPGGSLRLSCAASGFTLSNYWMHWVRQAPRKGLEWVSTISTDNSRTYYADSVKGRFTISRDHAKNTLILQMNSLKSEDTAVYYCIRGSDYEHWGQGTQVTVSS
VL: QTVVTQEPSLSVSPGGTVTLTCGLSSGSVTTTNYPGWFQQTPGQAPRTLIYSTSSRHSGVPSRFSGSISGNKAALTITGAQPEDEADYYCALEEIGSYTYMFGGGTHLTVLG
notes: Llama-derived Fab
For B2, the koff in test [2] amounted to 0.00032 s⁻¹.

B3: 5B2 chimeric llama-human mAb (antibody, human IgG1, V domains shown)
VH: QVQLVESGGDLVQPGGSLRLSCAASGFTVSNPAMSWVRQAPGKGLEWVSEITNYGYNRYYADSVKGRFTISTDNAKNTLYLQMNSLRSEDSAVYYCTASLGLEYGYGDWGQGTQVTVSS
VL: QSALTQPPSVSGTLGKTLTISCAGTSSDVGYGNYVSWYQQLPGTAPKLLIYRVSTRASGMPDRFSGSKSGNTASLTISGLQSEDEADYYCASYTTNNKPVFGGGTHLTVLG
As for B3, the “IC50 (ng/ml), IL-8 secretion in Raji / HT1080-CD27 co-culture assay” value in test [4] is 19 ng/mL. In addition, the concentration for half-maximal inhibition (IC50) – broadly, the concentration at which inhibition is half-maximal – in test [5] was found to be 0.092 µg/mL.

B4: 5B2 (Fab, V domains shown)
VH: QVQLVESGGDLVQPGGSLRLSCAASGFTVSNPAMSWVRQAPGKGLEWVSEITNYGYNRYYADSVKGRFTISTDNAKNTLYLQMNSLRSEDSAVYYCTASLGLEYGYGDWGQGTQVTVSS
VL: QSALTQPPSVSGTLGKTLTISCAGTSSDVGYGNYVSWYQQLPGTAPKLLIYRVSTRASGMPDRFSGSKSGNTASLTISGLQSEDEADYYCASYTTNNKPVFGGGTHLTVLG
notes: also called 5B2 Fab
Consider B4, for which, in test [1], the “IC50 (read off the curve)” value is about 2 nM.

B5: 57B6 Fab (Fab, V domains shown)
VH: QLQLVESGGGLVQPGGSLRLSCAASGFSFSHYAMSWVRQAPGKGLEWVSGDNTYDGGTRYQDSVKGRFTISRDNGKNTLYLQMNSLKPEDTAVYYCAKDTGRGIMGEYGMDYWGKGTLVTVSS
VL: QTVVTQEPSLSVSPGGTVTLTCGLKSGSVTSSNYPAWYQQTPGQAPRLLIYNTNSRHSGVPSRFSGSISGNKAALTITGAQPEDEADYYCALYMGSGSANAMFGGGTHLTVLG
notes: Llama-derived Fab
On to B5, for which the koff turned out to be 4e-05 s⁻¹ in test [2] and 0.0001 s⁻¹ in test [3].

B6: 9B2 chimeric llama-human mAb (antibody, human IgG1, V domains shown)
VH: QLQVVESGGGLMQPGGSLRLSCAASGFTFSGSAMSWVRQAPGKGLEWVSSIYSHSMYTYYADSVKSRFTISTDNAKNTLYLQMNSLKPDDTAVYYCAASSDYEGLFVSWGQGTQVTVSS
VL: QAVLTQPPSLSASPGSSVRLTCTLNSANSVGSYDISWYQQKAGSPPRYLLYYYSDSLSHQGSGVPSRFSGSTDASANAGLLLISGLQPEDEADYYCSAYNRGSHVFGGGTKLTVLG
As for B6, the “IC50 (ng/ml), IL-8 secretion in Raji / HT1080-CD27 co-culture assay” value in test [4] was found to be 213 ng/mL. Moreover, in test [5], the IC50 was 0.126 µg/mL.

B7: 9B2 Fab (Fab, V domains shown)
VH: QLQVVESGGGLMQPGGSLRLSCAASGFTFSGSAMSWVRQAPGKGLEWVSSIYSHSMYTYYADSVKSRFTISTDNAKNTLYLQMNSLKPDDTAVYYCAASSDYEGLFVSWGQGTQVTVSS
VL: QAVLTQPPSLSASPGSSVRLTCTLNSANSVGSYDISWYQQKAGSPPRYLLYYYSDSLSHQGSGVPSRFSGSTDASANAGLLLISGLQPEDEADYYCSAYNRGSHVFGGGTKLTVLG
notes: Llama-derived Fab
For B7, the “IC50 (read off the curve)” value in test [1] is about 4 nM. Also, the koff in test [2] was 0.00061 s⁻¹; in test [3], 0.00028 s⁻¹.

B8: 19G10 Fab (Fab, V domains shown)
VH: EVQLQESGGGVVQPGGSLRLSCAASGFTFDDYAMSWVRQAPGKGLEWVSSIYMYDSSTYYADSVKGRFTISTDNAKNTVYLQMNSLKSEDTAVYYCAKDINRSYGSSWSHFGPIFSSWGQGTQVTVSS
VL: NFMLTQPSAVSVSLGQTARITCQGGYYTHWYQQKPGQAPVLVIYVNNNRPSGIPERFSGSSSGNTATLTISGAQAEDEAAYYCQSGSSSTIPVFGGGTKLTVLG
notes: Llama-derived Fab
B8: the “IC50 (read off the curve)” value in test [1] was about 0.04 µg/mL. Also, in test [3], the koff stood at 8e-05 s⁻¹.

B9: 9E1 Fab (Fab, V domains shown)
VH: EVQLQESGGGVVQPGGSLRLSCAASGFTFDDYAMSWVRQAPGKGLEWVSSIYMYDSSTYYADSVKGRFTISTDNAKNTVYLQMNSLKSEDTAVYYCAKDINRSYGSSWSHFGPIFSSWGQGTQVTVSS
VL: QAVVTQEPSLSVSPGGTVTLTCGLTSGSVTSSNYPDWYQQTPGQAPRLLIYNTNSRHSGVPSRFSGSISGNKAALTITGAQPEDEADYYCNLYMGSGGSKVFGGGTKLTVLG
notes: Llama-derived Fab
On to B9, for which the koff in test [2] came to 0.0002 s⁻¹; in test [3], 0.00019 s⁻¹.

B10: 24B6 Fab (Fab, V domains shown)
VH: EVQLQESGGGVVQPGGSLRLSCAASGFTFDDYAMSWVRQAPGKGLEWVSSIYMYDSSTYYADSVKGRFTISTDNAKNTVYLQMNSLKSEDTAVYYCAKDINRSYGSSWSHFGPIFSSWGQGTQVTVSS
VL: QPVLTQPSAVSVSLGQTARITCQGGYYTHWYQQKPGQAPVLVIYINNNRPSGIPERFSGSISGNTATLTISGAQVEDEADYYCQSGSSSTIPVFGGGTKLTVLG
notes: Llama-derived Fab
As to B10, in test [1], the “IC50 (read off the curve)” value is about 0.04 µg/mL. For the same molecule, the koff in test [3] is 0.0001 s⁻¹.

B11: 9D1 Fab (Fab, V domains shown)
VH: EVQLVESGGGLVQPGGSLRLSCAASGFTFSVYYMNWVRQAPGKGLEWVSDINNEGGTTYYADSVKGRFTISRDNAKNTLTLQMNSLKPEDTALYYCVRDAGYSNHVPIFDSWGQGTQVIVAS
VL: QAVVTQEPSLSVSPGGTVTLTCGLSSGSVTSSHYPGWYQQTPGQAPRLLIFNTNSRHSGVPSRFSGSISGNKAALTITGAQPEDEADYYCALLNIDDGSTMFGGGTHLTVLG
notes: Llama-derived Fab
With B11, the “IC50 (read off the curve)” value in test [1] was about 0.2 µg/mL. For the same molecule, the koff in test [2] was 0.0002 s⁻¹; in test [3], 0.00048 s⁻¹.

B12: 24F2 Fab (Fab, V domains shown)
VH: EVQLVESGGGLVQPGGSLRLSCAASGFTFSVYYMNWVRQAPGKGLEWVSDINNEGGTTYYADSVKGRFTISRDNAKNTLTLQMNSLKPEDTALYYCVRDAGYSNHVPIFDSWGQGTQVIVAS
VL: QSALTQPSAVSVSLGQTARITCRGDTLRNYHANWYRQKPGQAPVLVIYGDDIRPSGIPERFSGSRLGGTATLTVSGAQAEDEADYYCQSSDSSGYRVVFGGGTKLTVLG
notes: Llama-derived Fab
As to B12, the “IC50 (read off the curve)” value in test [1] is about 0.04 µg/mL. The koff in test [3] worked out at 0.00016 s⁻¹.
